Changes are numbered by the printed parent chain. Numbers in names are those of the source.
T1: Human AXL-Fc (R&D Systems, #154-AL) (human, UniProt P30530 26-451)
T1 construct: Bought reagent; also called human AXL-Fc fusion protein; human AXL-Fc protein; not shown: Fc part of the bought fusion protein
T1 sequence: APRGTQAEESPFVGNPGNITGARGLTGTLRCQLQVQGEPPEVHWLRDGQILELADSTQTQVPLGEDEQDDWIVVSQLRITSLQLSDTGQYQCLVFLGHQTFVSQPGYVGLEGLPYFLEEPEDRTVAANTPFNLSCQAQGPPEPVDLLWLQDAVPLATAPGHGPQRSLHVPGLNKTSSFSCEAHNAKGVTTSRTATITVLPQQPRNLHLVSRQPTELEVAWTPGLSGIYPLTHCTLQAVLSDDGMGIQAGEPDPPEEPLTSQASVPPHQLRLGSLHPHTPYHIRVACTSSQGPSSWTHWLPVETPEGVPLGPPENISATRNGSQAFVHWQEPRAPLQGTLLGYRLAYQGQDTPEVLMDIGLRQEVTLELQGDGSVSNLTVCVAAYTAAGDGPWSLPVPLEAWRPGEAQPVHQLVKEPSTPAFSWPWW

B1: h#11B7-T3 (antibody, human IgG1, kappa, V domains shown)
VH: QVQLQESGPGLVKPSQTLSLTCAVSGYSITSNYWGWIRKPPGDGLEWMGYITYSGSTSYNPSLKSRISITRDTSKNQFSLKLSSVTAADTAVYYCAITTFYYWGQGTLVTVSS
VL: DIQMTQSPSSLSASVGDRVTITCRASQDIGNYLRWFQQKPGKAPKLMISGATNLAAGVPSRFSGSRSGSDYTLTISSLQPEDFATYYCLQSKESPWTFGGGTKVEIKR
notes: Humanized IgG1/kappa
B2: h#11B7-T2 (antibody, human IgG1, kappa, V domains shown)
VH: B1 VH with V2I, K39Q, D43K, T70S, R71V
VL: B1 VL with S65T, R66G, S69T, L73F
notes: Humanized IgG1/kappa
B3: h#11B7-T5 (antibody, human IgG1, kappa)
heavy: not shown
light: DIQMTQSPSSLSASVGDRVTITCRASQDIGNYLRWFQQKPGKAPKLMISGATNLAAGVPSRFSGSGSGSDYTLTISSLQPEDFATYYCLQSKESPWTFGQGTKLEIKRTVAAPSVFIFPPSDEQLKSGTASVVCLLNNFYPREAKVQWKVDNALQSGNSQESVTEQDSKDSTYSLSSTLTLSKADYEKHKVYACEVTHQGLSSPVTKSFNRGEC
notes: Humanized IgG1/kappa
B4: h#11B7-T4 (antibody, human IgG1, kappa)
heavy: not shown
light: B3 light with F36Y, M47L, Y71F
notes: Humanized IgG1/kappa
B5: h#11B7-T6 (antibody, human IgG1, kappa)
heavy: not shown
light: B3 light with L104V
notes: Humanized IgG1/kappa
B6: h#11B7-T23 (antibody, human IgG1, kappa, V domains shown)
VH: B1 VH with Q16E, A23T, K39Q, D43K, M48I, I67V, S68T, T70S
VL: B1 VL with R66G, Y71F, G100Q
notes: Humanized IgG1/kappa
B7: h#11B7-T27 (antibody, human IgG1, kappa)
heavy: not shown
light: B3 light with F36Y, M47L, Y71F, L104V
notes: Humanized IgG1/kappa
B8: h#11B7-T22 (antibody, human IgG1, kappa)
heavy: not shown
light: B3 light with M47L, L104V
notes: Humanized IgG1/kappa
B9: h#11B7-T24 (antibody, human IgG1, kappa, V domains shown)
VH: B1 VH with Q16E, A23T, K39Q, D43K, M48I, I67V, S68T, T70S
VL: B1 VL with F36Y, M47L, R66G, G100Q
notes: Humanized IgG1/kappa
B10: h#11B7-T26 (antibody, human IgG1, kappa, V domains shown)
VH: B1 VH with Q16E, A23T, K39Q, D43K, M48I, I67V, S68T, T70S
VL: B1 VL with F36Y, R66G, Y71F, G100Q
notes: Humanized IgG1/kappa
B11: h#11D5-T1 (antibody, human IgG1, kappa, V domains shown)
VH: QVQLQESGPGLVKPSQTLSLTCTVSGYSITSNYWGWIRQPPGMGLEWIGHITNSGNTTYNPSLKSRVTISVDTSENQFSLKLSSVTPADTAVYYCAKGAFDYWGQGTLVTVSS
VL: DVQMTQSPSSLSASVGDRVTITCRASQDIGNYLSWYQQKPGKAPKLLIYGAIKLAVGVPSRFSGSGSGTDFTLTISSLQPEDFATYYCLQYIQFPLTFGQGTKLEIKR
notes: Humanized antibody of rat #11D5 made from pEF6KCL/h#11D5-T1L and pEF1/FCCU/h#11D5-T1H; also called T1 (humanized #11D5)
B12: h#11D5-T3 (antibody, human IgG1, kappa, V domains shown)
VH: B11 VH with Q1E, Q39K, P40F, M43N, G44K, L45M, V67I, T68S, V71R, E75K
VL: DIQMTQSPSSLSASVGDRVTITCRASQDIGNYLSWFQQKVGKSPRRMIYGAIKLAVGVPSRFSGSRSGSDYTLTISSLQPEDFAIYYCLQYIQFPLTFGSGTKLEIKR
notes: Humanized IgG1/kappa
B13: h#11D5-T5 (antibody, human IgG1, kappa)
heavy: not shown
light: DIQMTQSPSSLSASVGDRVTITCRASQDIGNYLSWFQQKPGKAPRRMIYGAIKLAVGVPSRFSGSGSGTDYTLTISSLQPEDFATYYCLQYIQFPLTFGGGTKVEIKRTVAAPSVFIFPPSDEQLKSGTASVVCLLNNFYPREAKVQWKVDNALQSGNSQESVTEQDSKDSTYSLSSTLTLSKADYEKHKVYACEVTHQGLSSPVTKSFNRGEC
notes: Humanized IgG1/kappa
B14: h#11D5-T2 (antibody, human IgG1, kappa, V domains shown)
VH: B11 VH with Q1E, V67I, T68S
VL: B11 VL with V2I, Y36F, K45R, L47M, F71Y
notes: Humanized IgG1/kappa
B15: h#11D5-T6 (antibody, human IgG1, kappa)
heavy: not shown
light: B13 light with G100Q
notes: Humanized IgG1/kappa
B16: h#11D5-T4 (antibody, human IgG1, kappa, V domains shown)
VH: B11 VH with E6Q, S7W, P9A, V12L, Q16E, M43K, V71R, E75K, P87A
VL: B11 VL with V2I, L46R, D70E, Q100G, L104V
notes: Humanized IgG1/kappa
B17: h#11B7-T31 (antibody, human IgG1, kappa)
heavy: not shown
light: B3 light with M47L, Y71F
notes: Humanized IgG1/kappa
B18: h#11B7-T30 (antibody, human IgG1, kappa)
heavy: not shown
light: B3 light with M47L
notes: Humanized IgG1/kappa
B19: h#11B7-T29 (antibody, human IgG1, kappa)
heavy: not shown
light: B3 light with M47L, Y71F
notes: Humanized IgG1/kappa
B20: h#11B7-T28 (antibody, human IgG1, kappa)
heavy: not shown
light: B3 light with M47L
notes: Humanized IgG1/kappa

Target: T1, Human AXL-Fc (R&D Systems, #154-AL)
Assay: ELISA on plate-adsorbed human AXL-Fc (1 ug/ml), 5-fold antibody dilution series, AP-conjugated goat anti-human IgG, fluorescent substrate (Example 13)

Row | EC50 (read off the curve) [µg/mL] | Binder
1 | ~0.02 | B1
2 | ~0.03 | B2
3 | ~0.02 | B3
4 | ~0.06 | B4
5 | ~0.02 | B5

Target: T1, Human AXL-Fc (R&D Systems, #154-AL)
Assay: as above
Remark: another data set of the same source

Row | EC50 (read off the curve) [µg/mL] | Binder
6 | ~0.01 | B6
7 | ~0.02 | B7
8 | ~0.02 | B8
9 | ~0.02 | B9
10 | ~0.03 | B10

Target: T1, Human AXL-Fc (R&D Systems, #154-AL)
Assay: ELISA on plate-adsorbed human AXL-Fc (1 ug/ml), 5-fold antibody dilution series, AP-conjugated goat anti-human IgG, fluorescent substrate (Example 14)

Row | EC50 (read off the curve) [µg/mL] | Binder
11 | ~0.02 | B11
12 | ~0.02 | B12
13 | ~0.01 | B13
14 | ~0.01 | B14
15 | ~0.01 | B15
16 | ~0.01 | B16

Target: T1, Human AXL-Fc (R&D Systems, #154-AL)
Assay: ELISA on plate-adsorbed human AXL-Fc (1 ug/ml), 5-fold antibody dilution series, AP-conjugated goat anti-human IgG, fluorescent substrate (Example 23)

Row | EC50 (read off the curve) [µg/mL] | Binder
17 | ~0.04 | B17
18 | ~0.04 | B18
19 | ~0.04 | B19
20 | ~0.04 | B20

From US20120117670A1 (U3 PHARMA, published 2012)
